In patent US20240158474A1 (SINO BIOLOGICAL, published 2024):

Assays:
Assay in all cases: indirect ELISA, VLP coated at 2 µg/mL, antibody 10 ng/mL, HRP goat anti-rabbit Fc
HPV59 VLP protein = target: T1, HPV59 VLP protein (human papillomavirus type 59)
T1 construct: Complete VLP protein; no limits of the construct printed, whole entry named; also called HPV59L1

HPV45 VLP protein = target: T2, HPV45 VLP protein (human papillomavirus type 45; human …, UniProt P36741 1-478; P06416 474-499)
T2 construct: range 1-478;range 474-499; Complete VLP protein used as coating protein; also called HPV45L1(1-478L)+HPV33L1(474K-499K)
T2 sequence: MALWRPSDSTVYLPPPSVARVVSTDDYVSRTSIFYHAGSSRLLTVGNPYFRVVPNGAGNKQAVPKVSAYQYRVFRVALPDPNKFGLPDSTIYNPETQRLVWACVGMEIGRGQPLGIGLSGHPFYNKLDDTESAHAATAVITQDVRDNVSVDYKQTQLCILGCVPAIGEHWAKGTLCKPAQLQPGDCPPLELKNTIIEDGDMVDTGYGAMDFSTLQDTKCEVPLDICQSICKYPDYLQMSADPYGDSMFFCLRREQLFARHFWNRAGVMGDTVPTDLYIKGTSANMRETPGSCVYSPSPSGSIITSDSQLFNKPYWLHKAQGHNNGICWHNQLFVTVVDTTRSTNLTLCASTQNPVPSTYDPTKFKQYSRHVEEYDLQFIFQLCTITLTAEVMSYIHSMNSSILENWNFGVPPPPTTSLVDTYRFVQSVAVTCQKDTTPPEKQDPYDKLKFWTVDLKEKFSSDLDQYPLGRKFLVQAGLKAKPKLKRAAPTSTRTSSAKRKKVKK

HPV16 VLP protein = target: T3, HPV16 VLP protein (human papillomavirus type 16, UniProt P03101 1-474)
T3 construct: Complete VLP protein; no limits of the construct printed, whole entry named; also called HPV-16L1
T3 sequence: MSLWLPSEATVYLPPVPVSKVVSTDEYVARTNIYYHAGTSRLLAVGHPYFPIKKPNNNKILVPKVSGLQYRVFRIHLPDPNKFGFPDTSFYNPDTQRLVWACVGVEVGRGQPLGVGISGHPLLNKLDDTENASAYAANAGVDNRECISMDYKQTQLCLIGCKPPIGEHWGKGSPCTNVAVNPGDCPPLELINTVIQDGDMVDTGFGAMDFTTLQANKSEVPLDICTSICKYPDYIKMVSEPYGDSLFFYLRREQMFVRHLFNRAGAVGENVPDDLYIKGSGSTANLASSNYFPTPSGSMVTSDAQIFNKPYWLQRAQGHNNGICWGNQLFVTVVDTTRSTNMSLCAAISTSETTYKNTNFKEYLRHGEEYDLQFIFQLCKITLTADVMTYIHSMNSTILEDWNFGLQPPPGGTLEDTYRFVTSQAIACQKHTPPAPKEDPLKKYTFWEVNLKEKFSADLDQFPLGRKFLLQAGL

HPV51 VLP protein = target: T4, HPV51 VLP protein (human papillomavirus type 51, UniProt P26536 1-474)
T4 construct: Complete VLP protein; no limits of the construct printed, whole entry named; also called HPV51L1
T4 sequence: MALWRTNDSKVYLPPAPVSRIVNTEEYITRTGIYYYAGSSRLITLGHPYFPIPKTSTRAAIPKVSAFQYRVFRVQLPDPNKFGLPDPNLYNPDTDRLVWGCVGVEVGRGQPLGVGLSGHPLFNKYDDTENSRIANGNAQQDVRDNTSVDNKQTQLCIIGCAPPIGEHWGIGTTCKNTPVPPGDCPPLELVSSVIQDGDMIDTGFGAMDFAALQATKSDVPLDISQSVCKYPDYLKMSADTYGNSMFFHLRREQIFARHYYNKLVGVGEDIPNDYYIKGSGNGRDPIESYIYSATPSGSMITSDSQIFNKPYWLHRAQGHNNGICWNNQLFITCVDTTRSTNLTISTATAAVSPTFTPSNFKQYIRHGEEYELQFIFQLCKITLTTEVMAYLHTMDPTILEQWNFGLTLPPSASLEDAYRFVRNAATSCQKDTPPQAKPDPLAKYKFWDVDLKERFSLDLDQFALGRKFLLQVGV

HPV52 VLP protein = target: T5, HPV52 VLP protein (human papillomavirus type 52, UniProt Q05138 27-504)
T5 construct: Complete VLP protein; no limits of the construct printed, whole entry named; also called P52SHELL
T5 sequence: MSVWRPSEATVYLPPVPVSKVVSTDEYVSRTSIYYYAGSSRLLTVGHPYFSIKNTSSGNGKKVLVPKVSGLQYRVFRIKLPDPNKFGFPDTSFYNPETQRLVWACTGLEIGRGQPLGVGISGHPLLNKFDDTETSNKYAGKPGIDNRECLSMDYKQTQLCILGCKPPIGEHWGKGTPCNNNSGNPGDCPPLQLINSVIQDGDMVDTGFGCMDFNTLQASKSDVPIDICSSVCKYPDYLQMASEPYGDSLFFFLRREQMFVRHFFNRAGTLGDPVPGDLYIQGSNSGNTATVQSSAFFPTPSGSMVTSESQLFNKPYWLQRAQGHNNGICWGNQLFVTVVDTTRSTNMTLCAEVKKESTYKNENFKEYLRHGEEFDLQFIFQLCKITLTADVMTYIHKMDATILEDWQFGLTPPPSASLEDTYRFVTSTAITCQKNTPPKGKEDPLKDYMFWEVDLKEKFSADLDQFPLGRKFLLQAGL

B1: monoclonal antibody HPV6-R003 (antibody, V domains shown)
VH: QQQLEESGGGLVKPGGTLTLTCKASGIDLSNYYMCWVRQAPGKGLEWIGCIYTGSGRTYYASWAKGRFTISKASSTTVTLQMTSLTAADTATYFCARDYLGWRASNIWGPGTLVTVSS
VL: ELVMTQTPSSVSAAVGGTVTINCQASQSVYSNNLVWYQQKPGQPPKLLIYGASTLASGVPSRFKGSGSGTQFTLTISDVVCDDAATYYCGGYVSDSTDGTAFGGGTEVVVKG
notes: here built from variable plus constant region so that the signal peptides are left out; In the sandwich ELISA the same antibody is used as coating antibody and, labelled with horseradish peroxidase, as detection antibody; also called anti-HPV6 L1 protein antibody
- OD450-blank (HPV59 VLP protein): 0.041 OD450
- OD450-blank (HPV45 VLP protein): 0.061 OD450
- OD450-blank (HPV16 VLP protein): 0.048 OD450
- OD450-blank (HPV51 VLP protein): 0.041 OD450
- OD450-blank (HPV52 VLP protein): 0.044 OD450
